Reference: PMC7263513 (bioRxiv, 2020)

B1: C132 (antibody, V domains shown)
VH: QVQLQESGPGLVKPSGTLSLTCAVSGGSISSNNWWSCVRQPPGKGLEWIGEIYHSGSTNYNPSLKSRVTISVDKSKNQFSLKLSSVTAADTAVYYCARGGDTAMGPEYFDYWGQGTLVTVSS
VL: QSALTQPASVSGSPGQSITISCTGTSSDVGGYNYVSWYQQHPGKAPKLMIYDVSNRPSGVSNRFSGSKSGNTASLTISGLQAEDEADYYCSSYTSSSTLLFGGGTKLTVL
B2: C150 (antibody, V domains shown)
VH: EVQLVESGGGLVQPGGSLRLSCVASGFTFSSYWMHWVRQVPGKGPVWVSHINSEGSSTNYADSVRGRFTISRDNAKDTLYLQMNNLRAEDTAVYYCARPTAVAAAGNYFYYYGMDVWGQGTTVTVSS
VL: QSALTQPASVSGSPGQSITISCTGTSSDVGYYNFVSWYQQHPGKAPKLMIYEVSNRPSGVSNRFSGSKSGNTASLIISGLQAEDEADYYCSSYRSSSTLVFGGGTKLTVL
B3: C153 (antibody, V domains shown)
VH: EVQLVESGGGLIQPGGSLRLSCAASGFTVSSNYMSWVRQAPGKGLEWVSVIYSGYSTYYVDSVKGRFTISRDNSKNTLYLQMNSLRAEDTAVYYCARVGGAHSGYDGSFDYWGQGTLVTVSS
VL: QSALTQPASVSGSPGQSITISCTGTSSDVGSYNLVSWYQQHPGKAPKLMIYEGSKRPSGVSNRFSGSKSGNTASLTISGLQAEDEADYYCCSYAGSSTWVFGGGTKLTVL
B4: C145 (antibody, V domains shown)
VH: EVQLVESGGGLIQPGGSLRLSCAASGFSVSSNYMSWVRQAPGKGLEWVSVIYSGGSTYYADSVKGRFTISRDNSKNTLYLQMNSLRAEDTAVYYCAREGEVEGYYDFWSGYSRDRYYFDYWGQGTLVTVSS
VL: QSALTQPASVSGSPGQSITISCTGTSSDVGGYNYVSWYQQHPGKAPKLMIYDVSNRPSGVSNRFSGSKSGNTASLTISGLQAEDEADYYCSSYTSSTTRVFGTGTRVTVL
B5: C130 (antibody, V domains shown)
VH: QVQLVQSGAEVKKPGASVKVSCKASGYTFTNYYMHWVRQAPGQGLEWMGIINPSGGSTGYAQKFQGRVTMTRDTSTSTVYMELSSLRSEDTAVYYCARSRPTPDWYFDLWGRGTLVTVSS
VL: SYELTQPPSVSVAPGKTARITCGGNNIGSKSVHWYQQKPGQAPVLVIYYDSDRPSGIPERFSGSNSGNTATLTISRVEAGDEADYYCQVWDSSSDHPGVVFGGGTKLTVL
B6: C134 (antibody, V domains shown)
VH: EVQLLESGGGLVQPGGSLRLSCAASGFTFSNYAMSWVRQAPGKGLEWVSAISGSDGSTYYAGSVKGRFTISRDNSKNTLYLQMNSLRAEDTAVYYCAKDPLITGPTYQYFHYWGQGTLVTVSS
VL: SYELTQPPSVSVAPGKTARITCGGNNIGSKSVHWYQQKPGQAPVLVIYYDSDRPSGIPERFSGSNSGNTATLTISRVEAGDEAEYHCQVWDSSSDRPGVVFGGGTKLTVL
B7: C124 (antibody, V domains shown)
VH: EVQLVESGGGLVQPGGSLRLSCAASGFTFSGYSMNWVRQAPGKGPEWVSYISRSSSTIYYADSVKGRFTISRDNAKNSLYLQMNSLRDEDTAVYYCAREGARVGATYDTYYFDYWGQGTLVTVSS
VL: EIVLTQSPATLSLSPGERATLSCRASQSFSSYLAWYQQKPGQAPRLLIYDASNRATGIPARFSGSGSGTDFTLTISSLEPEDFAVYYCQQRNNWPPEWTFGQGTKVEIK
B8: C143 (antibody, V domains shown)
VH: EVQLVESGGGLVQPGGSLRLSCAASGFSVSTKYMTWVRQAPGKGLEWVSVLYSGGSDYYADSVKGRFTISRDNSKNALYLQMNSLRVEDTGVYYCARDSSEVRDHPGHPGRSVGAFDIWGQGTMVTVSS
VL: QSALTQPASVSGSPGQSITISCTGTSNDVGSYTLVSWYQQYPGKAPKLLIFEGTKRSSGISNRFSGSKSGNTASLTISGLQGEDEADYYCCSYAGASTFVFGGGTKLTVL
B9: C128 (antibody, V domains shown)
VH: EVQLLESGGGLVQPGGSLRLSCAASGFTFSTYAMSWVRQAPGKGLEWVSTITGSGRDTYYADSVKGRFTISRDNSKNTLFLQLNSLRAEDAAVYSCANHPLASGDDYYHYYMDVWGKGTTVTVSS
VL: EIVLTQSPGTLSLSPGERATLSCRASQSVNSRQLAWYQQKPGQAPRLLIYGASSRATGIPERFSGSGSGTDFTLTISRLESEDFAVYHCQQYGSSRALTFGGGTKVEIK
B10: C148 (antibody, V domains shown)
VH: EVQLVESGGGLVQPGGSQRLSCAASGFTVSSNYMSWIRQAPGKGLEWVSVIYSGGSAYYVDSVKGRFTISRDNSKNTLYLQMNSLRPEDTAVYYCARIANYMDVWGKGTTVTVSS
VL: EIVMTQSPATLSVSPGERATLSCRASQSVSSHLAWYQQKPGQAPRLLIYGASTRATGIPTRFSGSGSGTEFTLTISSLQSEDFAVYYCQQYNNWPPLTFGGGTKVEIK
B11: C133 (antibody, V domains shown)
VH: QVQLVESGGGVVQPGRSLRLSCAASGFTFSSYAMHWVRQAPGKGLEWVAVILYDGSNKYYADSVKGRFTISRDNSKNTLYLQMNSLRAEDTAVYYCARDSDVDTSMVTWFDYWGQGTLVTVSS
VL: not shown
B12: C154 (antibody, V domains shown)
VH: QVQLVESGGGVVQPGRSLRLSCAASGFTFSRYGMHWVRQAPGKGLEWVAVMSYDGSSKYYADSVKGRFTISRDNSKNTLCLQMNSLRAEDTAVYYCAKQAGPYCSGGSCYSAPFDYWGQGTLVTVSS
VL: DIQMTQSPSSLSASVGDRVTITCQASQGISNYLNWYQQKPGKAPKLLIYDASNLETGVPSRFSGSGSGTDFTFTISSLQPEDIATYYCQQYDNLPITFGQGTRLEIK
B13: C126 (antibody, V domains shown)
VH: QVQLQESGPGLVKPSETLSLSCAVSGGSIGSYFWSWIRQPPGKGLEWIGYLHYSGSTNYNPSLKSRVTISVDTSKNQFSLKLSSVTAADTAVYYCARLQWLRGAFDIWGQGTMVTVSS
VL: NFMLTQPHSVSESPGKTVTISCTGSSGSIASNYVQWYQQRPGSAPTTVINEDNQRPSGVPDRFSGSIDSSSNSASLTISGLKTEDEADYYCQSYDSSNLVFGGGTKLTVL
B14: C141 (antibody, V domains shown)
VH: not shown
VL: NFMLTQPHSVSESPGKTVTISCTGSSGSIASNYVQWYQQRPGSAPTTVIYEDNQRPSGVPDRFSGSIDSSSNSASLTISGLKTEDEADYYCQSYDSSNWVFGGGTKLTVL
B15: C138 (antibody, V domains shown)
VH: EVQLVESGGGLVQPGGSLRLSCAASGFTFSTYWMSWVRQPPGKGLEWVANIKQDGSEKYYVDSVKGRFTISRDNAKNSLYLQMNSLRADDTAVYYCAGGTWLRSSFDYWGQGTLVTVSS
VL: NFMLTQPHSVSESPGKTVTISCTGSSGSIASNYVQWYQQRPGSAPTTVIYEDNQRPSGVPDRFSGSIDSSSNSASLTISGLKTEDEADYYCQSYDSSNWVFGGGTKLTVL
B16: C155 (antibody, V domains shown)
VH: EVQLVESGGGLIQPGGSLRLSCAASGFIVSSNYMSWVRQAPGKGLEWVSVIYSGGSTFYADSVKGRFTISRDNSKNTLYLQMNSLRAEDTAVYYCARDFGEFYFDYWGQGTLVTVSS
VL: EIVMTQSPATLSVSPGERATLSCRASQSVSSNLAWYQQKPGQAPRLLIYGASTRATAIPARFSGSGSGTEFTLTISSLQSEDFAVYYCQQYNNWPRTFGQGTKVEIK
B17: C139 (antibody, V domains shown)
VH: EVQLVESGGGVVQPGRSLRLSCAASGFTFSSYAMHWVRQAPGKGLEWVAVISYDGSNKYSADSVKGRFTISRDNSKNTLYLQMNSLRAEDTAVYYCAKGGAYSYYYYMDVWGKGTTVTVSS
VL: not shown
B18: C151 (antibody, V domains shown)
VH: EVQLVESGGGLVKPGGSLRLSCAASGFTFSSYNMNWVRQAPGKGLEWVSCISSSSSYIYYADSVKGRFTISRDNAKNSLYLQMNSLRAEDTAVYYCARERGYDGGKTPPFLGGQGTLVTVSS
VL: NFMLTQPHSVSESPGKTVTISCTGSSGSIASNYVQWYQQRPGSAPTTVIYEDNQRPSGVPDRFSGSIDSSSNSASLTISGLKTEDEADYYCQSYDSSNYWVFGGGTKLTVL
B19: C131 (antibody, V domains shown)
VH: QVQLVQSGSEVKKPGSSVKVSCKASGGTFSSYAFSWVRQAPGQGLEWMGRIIPILALANYAQKFQGRVTITADKSTSTAYMELSSLRSEDTAVYYCARVNQAVTTPFSMDVWGQGTTVTVSS
VL: not shown
B20: C122 (antibody, V domains shown)
VH: EVQLVESGGGLIQPGGSLRLSCAASGLTVSSNYMSWVRQAPGKGLEWVSVLYSGGSSFYADSVKGRFTISRDNSKNTLYLQMNSLRAEDTAVYYCARESGDTTMAFDYWGQGTLVTVSS
VL: DIQLTQSPSFLSASVGDRVTITCRASQGISSYLAWYQQKPGKAPKLLIYAASTLQSGVPSRFSGSGSGTEFTLTISSLQPEDFATYYCQQLNSDSYTFGQGTKLEIK
B21: C123 (antibody, V domains shown)
VH: EVQLVESGGGLIQPGGSLRLSCAASGVTVSRNYMSWVRQAPGKGLEWVSVIYSGGSTYYADSVKGRFTISRDNSKNTLYLQMNSLRAEDTAVYYCARDLSAAFDIWGQGTMVTVSS
VL: DIQLTQSPSFLSASVGDRVTITCRASQGISSYLAWYQQKPGKAPKLLIYAASTLQSGVPSRFSGSGSGTEFTLTISSLQPEDFATYYCQQLNSYPPAFGQGTRLEIK
B22: C140 (antibody, V domains shown)
VH: EVQLVESGGGLVQPGGSLRLSCAASGVTVSSNYMSWVRQAPGKGLEWVSLIYSGGSTFYADSVKGRFTISRDNSENTLYLQMNTLRAEDTAVYYCARDLYYYGMDVWGQGTTVTVSS
VL: DIQLTQSPSFLSASVGDRVTITCRASQGISSYLAWYQQKPGKAPKLLIYAASTLQSGVPSRFSGSGSGTEFTLTISSLQPEDFATYYCQQLNSYSYTFGQGTKLEIK

Molecular target: SARS-CoV-2 receptor binding domain (RBD) (Severe acute respiratory syndrome …, UniProt P0DTC2)
Experiment: cell-based or functional assay

Binder | IC50 of neutralisation of SARS-CoV-2 pseudovirus (293T_(ACE2) cells) [µg/mL]
B1 | 0.709
B2 | > 1
B3 | 0.0707
B4 | 0.00304
B5 | > 1
B6 | > 1
B7 | 0.342
B8 | > 1
B9 | 0.101
B10 | > 1
B11 | > 1
B12 | 0.435
B13 | > 1
B14 | > 1
B15 | > 1
B16 | 0.011
B17 | > 1
B18 | 0.0318
B19 | 0.0305
B20 | 0.0228
B21 | 0.149
B22 | 0.0239
